# Test: Phase 1b safety and tolerability of HBI-8000 combined with nivolumab (DLTs, TEAEs)
# Assay type: in vivo
# Description: The present example, was a Phase Ib/2 open-label dose finding study for HBI-8000 (also referred to in the art as “chidamide” or “tucidinostat” and also referred to herein as a compound of formula I) in combination with nivolumab in patients with advanced solid tumors, including melanoma, RCC (renal cell carcinoma), and NSCLC (non-small cell lung cancer). This study was conducted in accordance with Good Clinical Practice guidelines and the Declaration of Helsinki and with assurance/approval from the US Department of Health and Human Services; the protocol was approved by the institutional review boards or ethics committees of all participating sites. All patients provided written informed consent to participate before enrollment. […]
# HBI-8000 at three dose levels (20 mg, 30 mg, and 40 mg) given orally twice a week (BIW) were evaluated. Doses were taken approximate 30 minutes after a meal. The starting dose (20 mg) was selected based on pharmacokinetic profiles established for monotherapy in Japanese patients with T-cell lymphoma.
# The decision to escalate the dose was based on the conventional 3+3 design and observed incidences of dose-limiting toxicities (DLTs). Each treatment cycle was defined as 28 days. […] Subjects experiencing DLT within the first two weeks after having received 100% of assigned dose of HBI-8000 are also evaluable for DLT. Unacceptable toxicities were defined as grade 3 or higher non-hematologic and hematologic toxicities with clinical complications. Unacceptable toxicities observed over the first 28 days following HBI-8000 administration were considered as DLTs. […] HBI-8000 administration continued until disease progression or unacceptable toxicity was observed. The efficacy of the combination was further evaluated in an expanded cohort of selected patient populations at RP2D based on an objective response rate according to Response Evaluation Criteria in Solid Tumors (RECIST) version 1.1 criteria, progression-free survival, and duration of responses.
# Safety evaluations included physical examinations, vital signs, ECGs, ECOG performance status, and laboratory tests.
# Statistical analyses of safety, tolerability, and anti-tumor activity were primarily descriptive in nature. Toxicities were tabulated by type and grade. The safety population included all patients who received ≥1 dose of HBI-8000 and nivolumab. Continuous variables were summarized using descriptive statistics and categorical variables were summarized with number and percentage at each category. Pharmacokinetic parameters were derived using noncompartmental methods with Phoenix® WinNonlin® Version 6.4 (Certara, L. P., Princeton, NJ, USA).
# [1] = 20 mg HBI-8000 BIW + nivolumab, N = 3
# [2] = 30 mg HBI-8000 BIW + nivolumab, N = 7
# [3] = 40 mg HBI-8000 BIW + nivolumab, N = 7
substance,measurement,setting,value
Nivolumab: fully human monoclonal antibody directed against PD-1 (marketed as OPDIVO) [reference compound],"Diarrhoea, Related Nivo, Any G",[1],1 (33) n (%)
same,"SAE related to Nivolumab alone, number of subjects",[1],1 n
same,"TEAE related to Nivolumab alone, number of subjects",[1],2 n
same,"TEAE resulting in discontinuation of Nivo alone, number of subjects",[1],1 n
same,"Weight decreased, Related Nivo, Any G",[1],1 (33) n (%)
same,"Back pain, Related Nivo, Any G",[2],2 (29) n (%)
same,"Dyspnoea, Related Nivo, Any G",[2],1 (14) n (%)
same,"Fall, Related Nivo, Any G",[2],1 (14) n (%)
same,"Hypoxia, Related Nivo, Any G",[2],1 (14) n (%)
same,"Lipase increased, Related Nivo, Any G",[2],1 (14) n (%)
same,"SAE related to Nivolumab alone, number of subjects",[2],2 n
same,"TEAE related to Nivolumab alone, number of subjects",[2],6 n
same,"TEAE resulting in discontinuation of Nivo alone, number of subjects",[2],4 n
same,"Diarrhoea, Related Nivo, Any G",[3],1 (14) n (%)
same,"SAE related to Nivolumab alone, number of subjects",[3],1 n
same,"TEAE related to Nivolumab alone, number of subjects",[3],2 n
same,"TEAE resulting in discontinuation of Nivo alone, number of subjects",[3],2 n
same,"SAE related to Nivolumab alone, number of subjects","Total, all dose levels, N = 17",4 n
same,"TEAE related to Nivolumab alone, number of subjects","Total, all dose levels, N = 17",10 n
same,"TEAE resulting in discontinuation of Nivo alone, number of subjects","Total, all dose levels, N = 17",7 n
